Experimental data taken from patent US12527876B2, “Insulin-like growth factor-chemotherapeutic conjugate for treating myelodysplastic syndrome” (IGF Oncology, LLC, priority 2017, dated 2026).

Assays:
[1] = test system: soluble IGF binding proteins; conditions: compared to wild-type IGF-1; Francis 1992, Tomas 1993, U.S. Pat. No. 4,876,242; cited from earlier work
MCF7-L tumors = assay: In vivo tumor growth inhibition, MCF7-L xenografts; set-up: species or system nu/nu mice; conditions: day 22; IV days 0 and 5; IGF-MTX (long-R3-IGF-1-methotrexate) 10 nmol of MTX/g, free MTX 40 nmol/g
Method: (§1) MCF7 cells (human breast adenocarcinoma cell line) were grown in Eagle's minimal essential medium supplemented with 0.1 mg/ml insulin and 10% FCS. The estrogen-dependent MCF7-L cell line was a gift from Deepali Sachdev of the University of Minnesota. MCF7-L cells were grown in modified IMEM medium (Invitrogen, Carlsbad, California, USA) supplemented with 0.1 mg/ml insulin. LNCaP cells (metastatic human prostatic adenocarcinoma) were grown in RPMI supplemented with glutamine and 10% FCS (Invitrogen, Carlsbad, California, USA). Cells were grown at 37° C. in a 5% CO2 humidified atmosphere. In each case, cells were grown to approximately two-thirds confluence, harvested by trypsinization, washed with rich medium and then washed twice with PBS and resuspended in phosphate buffered saline in BD matrigel matrix (Becton Dickinson, Franklin Lakes, New Jersey, USA). Cells were injected intradermally in mice on the back. An estrogen pellet (0.5 mg estradiol, 60-day release, Innovative Research of America, Sarasota, Florida, USA) was implanted subcutaneously between the shoulder blades two days before implanting MCF7 and MCF7-L cells. MCF7 and MCF7-L cells were implanted in 8-week-old female nu/nu mice. […]
The second in vivo study was conducted using an estrogen-dependent MCF7 strain, MCF7-L. Tumor cells were implanted, and mice were monitored for tumor growth. […]

MCF7 cells = assay: In vitro proliferation assay of MCF7 cells, tritiated thymidine (Example 15); assay type: cell-based, human
Method: MCF7 was cultured in Eagle's Minimum Essential Medium, with 0.01 mg/ml human recombinant insulin, 10% fetal bovine serum, and pen/strep. For in vitro proliferation assays it was plated at 8,000 cells per well in a 96-well plate. […] After 5 more days, 1 uCi tritiated thymidine was added per well in 50 ul fresh medium. Six hours later the cells were harvested and radioactivity counted.

MCF-7 tumor cells = assay: In vitro cytotoxicity assay: inhibition of proliferation of MCF-7 cells, CCK-8 (Example 6); assay type: cell-based; conditions: Homo sapiens, MCF7, read-out: IC50 (50% inhibition of cell proliferation)
Method: Day 0. Five-thousand MCF7 cells were plated per well in a 96-well test plate in 100 ul of rich media on day 0.
Day 1. A shadow plate was made for each test plate, with each well of the shadow plate containing media or 3× the intended final concentration of test agent in media in each well. As a negative control, media is used.
After making the shadow plate, 50 ul is transferred from each well of the shadow plate to the corresponding well of the test plate to generate the final concentrations of test agent in the wells of the test plate.
Day 5. Cell proliferation is determined by adding Dojindo CCK-8 reagent and incubating and measuring absorbance of the dye according to the manufacturer's instructions.

LNCaP cells [2] = assay: In vitro proliferation assay of LNCaP cells, Cell Counting Kit-8; assay type: cell-based, human; conditions: highest tested concentration of 2000 nM, P=0.003, IGF-MTX = long-R3-IGF conjugate
Method: LNCaP cells were plated in a 96-well plate at 5,000 cells per well in RPMI+glutamine+10% FCS medium in 100 μl. After 24 hours, 100 μl fresh medium was added containing no drug (control), IGF-MTX or MTX at the indicated concentration. After 48 hours of further incubation, cell proliferation was assayed with the Cell Counting Kit-8 (Dojindo Molecular Technologies, Kumamoto, Japan) according to the manufacturer's instructions.

MCF7 tumors = assay: In vivo tumor growth inhibition, MCF7 xenografts; set-up: species or system nu/nu mice; conditions: IV days 0, 4 and 8; IGF-MTX (long-R3-IGF-1-methotrexate) 10 nmol of MTX/g, free MTX 40 nmol/g
Method: as §1, with “mice. LNCaP cells were implanted in 8-week-old male nu/nu mice. The IGF-MTX conjugate was administered in 2 mM HCl, 1% glycerol. MTX was dissolved in PBS.” for “mice.”

[3] = Solubility of IGF-1R ligand-MTX conjugates; assay type: physicochemical; conditions: phosphate buffered saline, or any neutral pH solution containing salt, over about 50 mM NaCl
[4] = set-up: species or system Beagle dogs; conditions: dog, in vivo
Text: Toxicokinetic (TK) parameters for free MTX were estimated from plasma concentration-time data arising from a 5-dose once weekly intravenous infusion study with insulin-like growth factor (IGF) MTX conjugate at low (0.5 μEq/kg), mid (2.0 μEq/kg) and high (4.0 μEq/kg) MTX equivalent dose levels. No consistent differences in the plasma levels of MTX were observed between animals of different genders and thus data from males and females were combined. Plasma levels of MTX increased with time both during and following a 1-hour intravenous infusion of the IGF-MTX conjugate. […] Both the AUC∞ and Cmax values were dose proportional. […] The pharmacokinetics of MTX following Day 29 of dosing were similar to those following Day 1 of dosing.
Following intravenous administration of the IGF-MTX conjugate in the dose range of 0.5-4.0 μEq/kg to Beagle dogs, serum levels of the IGF-MTX conjugate decreased quickly. There was no gender bias and an increase in serum exposure was observed on Day 29 compared to Day 1. […] The elimination of the IGF-MTX conjugate was marginally slower with successive doses, resulting in an increased plasma exposure. The elimination of the IGF-MTX conjugate preceded the development of maximal MTX concentrations.

[5] = rat, in vivo
MDS = conditions: higher-risk patients, phase III trial; cited from earlier work
LNCaP tumors = assay: In vivo tumor growth inhibition, LNCaP xenografts; set-up: species or system nu/nu mice; conditions: LNCaP model, 8 nmol/g IGF-MTX vs. 50 nmol/g MTX
Method: as §1, with “back.” for “back. An estrogen pellet (0.5 mg estradiol, 60-day release, Innovative Research of America, Sarasota, Florida, USA) was implanted subcutaneously between the shoulder blades two days before implanting MCF7 and MCF7-L cells. MCF7 and MCF7-L cells were implanted in 8-week-old female nu/nu mice.”
In a final in vivo study, prostate cancer LNCaP cells were implanted intradermally on day 0 in mice, which were then randomized to different treatment groups. […] Tumor size was much smaller in the groups treated with 8 nmol/g or 3.2 nmol/g of the IGF-MTX conjugate (dosage expressed as moles of each MTX molecule) compared to mice treated with higher doses of free MTX (50, 20 or 8 nmol/g). […]

[6] = target: T1, dihydrofolate reductase (DHFR) (Homo sapiens, UniProt P00374); assay: Dihydrofolate reductase inhibition assay (Sigma-Aldrich kit); assay type: biochemical; conditions: IC50 in nEq/L divided by MTX per IGF; read-out: inhibition constant in terms of protein concentration
T1 construct: purchased Sigma-Aldrich
T1 sequence (P00374 1-187): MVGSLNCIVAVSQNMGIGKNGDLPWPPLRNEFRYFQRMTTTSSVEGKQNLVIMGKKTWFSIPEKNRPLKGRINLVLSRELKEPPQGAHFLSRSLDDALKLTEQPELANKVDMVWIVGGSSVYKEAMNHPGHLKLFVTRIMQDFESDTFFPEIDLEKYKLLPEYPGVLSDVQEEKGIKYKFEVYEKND
Method: The experiments were done with the dihydrofolate reductase assay kit from Sigma-Aldrich (St. Louis, MO, USA), according to the manufacturer's instructions. In the assay dihydrofolate reductase is mixed with pH 7.5 buffer. […] It was incubated for 30 seconds to allow inhibitor binding. Then NADPH is added to 50 uM final concentration, and then dihydrofolic acid is added to 60 uM final concentration. The reaction is monitored by measuring absorbance at 340 nm.

LNCaP cells [7] = conditions: 48 hours, nM methotrexate groups, McTavish et al. 2009; cited from earlier work

In the case of “des(1-3)IGF1: lacks the first three residues of wild-type IGF-1, SEQ ID NO: 7 [reference compound]”, the “binding affinity to the soluble IGF binding proteins” value [1] is listed as “reduced binding affinity”.

With `CN(Cc1cnc2nc(N)nc(N)c2n1)c1ccc(C(=O)N[C@@H](CCC(=O)O)C(=O)O)cc1` [Methotrexate, methotrexate] the tumor growth inhibition (MCF7-L tumors) was “inhibited about equally”, the IC50 (MCF7 cells; Homo sapiens, MCF7, parallel assay, free drug) was 17 nM and the “IC50 of MTX lower than IGF-MTX” value (MCF7 cells; MCF-7 cells in vitro) was “about 50 fold”. The IC50 (MCF-7 tumor cells) was 88 nM, the “inhibition of proliferation compared with IGF-MTX” value (LNCaP cells [2]) was “significantly greater inhibition than IGF-MTX” and the “tumor growth over 12 days of observation” value (MCF7 tumors) was “tumors continued to grow”.

For “insulin-MTX: insulin conjugated to methotrexate”, the solubility [3] was “low solubility”.

For IGF-MTX, the “apparent clearance of MTX” value [4] was 5.67 to 7.67 mL/min/kg, the “apparent volume of distribution of the IGF-MTX conjugate” value [4] was 0.07 to 0.20 L/kg and the “decrease of apparent clearance on Day 29 compared to Day 1” value [4] was 25-50%. The “mean residence time of the IGF-MTX conjugate” value [4] was 1.4 to 5.3 h, the “terminal half-life of the IGF-MTX conjugate” value [4] was 2.5 to 4.6 h and the “apparent clearance of the IGF-MTX conjugate” value ([4]; iv) was 0.33 to 0.83 mL/min/kg. The decrease of platelets [5] was “approximately 38%”, the “increase of mean spleen weight” value [5] was 17 to 38% and the “mean increases or decreases in blood glucose” value [5] was −1.8±7 to 7.5±3.4. The reduction in neutrophils [5] was 50-57% and the “reduction of WBC's” value [5] was 5-35%.

In the case of `Nc1ncn([C@@H]2O[C@H](CO)[C@@H](O)[C@H]2O)c(=O)n1` [azacitidine], the patients with responses (MDS) is listed as “approximately 50%” and the “survival at 2 years of follow-up compared to conventional care” value (MDS) is listed as “doubled”.

B1: IGF132: variant of IGF-1, SEQ ID NO: 4, disclosed in U.S. Pat. No. 4,876,242 (protein)
chain: FVNQHLCGSHLVEALYLVCGDRGFYFNKPTGYGSSSRRAPQTGIVDECCFRSCDLRRLEMYCAPLKPAKSA
For B1, the “binding affinity to the soluble IGF binding proteins” value [1] is listed as “reduced binding affinity”.

B2: LR3IGF-MTX (conjugate)
chain: MFPAMPLSSLFVNGPRTLCGALVDALQFVCGDRGFYFNKPTGYGSSSRRAPQTGIVDECCFRSCDLRRLEMYCAPLKPAKSEA
In the case of B2, the “more effective than free MTX at fold lower molar dose of MTX groups” value (LNCaP tumors) is given as “at least 6 fold”, the IC50 [6] is given as 35 nM and the IC50 (LNCaP cells [7]) is given as about 1000 nM. The solubility [3] was “low solubility”.
